{"source": "the PETadex activity labels (doi:10.1016/j.ijbiomac.2025.149745)", "proteins": {"B1": {"name": "unnamed (protein)", "chain": "MDGVLWRVRTAALMAALLALAAWALWASPSVEAQSNPYQRGPNPTRSALTADGPFSVATYTVSRLSVSGFGGVIYYPTGTSLTFGGIAMSPGYTADASSLAWLGRRLASHGFVVLVINTNSRFDYPDSRASQLSAALNYLRTSSPSAVRARLDANRLAVAGHSMGGGGTLRIAEQNPSLKAAVPLTPWHTDKTFNTSVPVLIVGAEADTVAPVSQHAIPFYQNLPSTTPKVYVELDNASHSAPNSNNAAISVYTISWMKLWVDNDTRYRQFLCNVNDPALSDFRTNNRHCQCQ"}, "B2": {"name": "unnamed (protein)", "chain": "B1 chain with H162W, S241F"}, "B3": {"name": "unnamed (protein)", "chain": "B1 chain with S241F"}, "B4": {"name": "unnamed (protein)", "chain": "B1 chain with H162W, A205C, A242C"}, "B5": {"name": "unnamed (protein)", "chain": "B1 chain with H162W"}, "B6": {"name": "unnamed (protein)", "chain": "MNFPRASRLMQAAVLGGLMAVSAAATAQTNPYARGPNPTAASLEASAGPFTVRSFTVSRPSGYGAGTVYYPTNAGGTVGAIAIVPGYTARQSSIKWWGPRLASHGFVVITIDTNSTLDQPSSRSSQQMAALRQVASLNGTSSSPIYGKVDTARMGVMGHSMGGGGSLISAANNPSLKAAAPQAPWDSSTNFSSVTVPTLIFACENDSIAPVNSSALPIYDSMSRNAKQFLEINGGSHFCANSGNSNQALIGKKGVAWMKRFMDNDTRYSTFACENPNSTRVSDFRTANCS"}, "B7": {"name": "unnamed (protein)", "chain": "B6 chain with H159W, F238S"}}, "note": "Where a chain is given by its changes, count along the chain named."}
{"substrate": "PEF", "experiment": "Proxy for plastic degradation [kcat] (s⁻¹)", "settings": "pH 9"}
{"protein": "B1", "Proxy for plastic degradation": 0.085}
{"protein": "B2", "Proxy for plastic degradation": 0.033}
{"protein": "B3", "Proxy for plastic degradation": 0.005}
{"protein": "B4", "Proxy for plastic degradation": 0.006}
{"protein": "B5", "Proxy for plastic degradation": 0.0175}
{"substrate": "PET", "experiment": "Proxy for plastic degradation [kcat] (s⁻¹)", "settings": "pH 9"}
{"protein": "B1", "Proxy for plastic degradation": 0.035}
{"protein": "B2", "Proxy for plastic degradation": 0.003}
{"protein": "B3", "Proxy for plastic degradation": 0.01}
{"protein": "B4", "Proxy for plastic degradation": 0.0045}
{"protein": "B5", "Proxy for plastic degradation": 0.018}
{"substrate": "not listed separately", "experiment": "Proxy for plastic degradation [melting temperature]", "settings": "pH 7", "units": {"Proxy for plastic degradation": "°C"}}
{"protein": "B1", "Proxy for plastic degradation": 85}
{"protein": "B2", "Proxy for plastic degradation": 84.9}
{"protein": "B3", "Proxy for plastic degradation": 85}
{"protein": "B4", "Proxy for plastic degradation": 82.5}
{"protein": "B5", "Proxy for plastic degradation": 84.5}
{"substrate": "pNPB", "experiment": "Proxy for plastic degradation [kcat/Km (catalytic efficiency)] (mM⁻¹s⁻¹)", "settings": "pH 7"}
{"protein": "B1", "Proxy for plastic degradation": 175}
{"protein": "B2", "Proxy for plastic degradation": 67}
{"protein": "B3", "Proxy for plastic degradation": 398}
{"protein": "B4", "Proxy for plastic degradation": 2.8}
{"protein": "B5", "Proxy for plastic degradation": 28}
{"substrate": "PEF", "experiment": "Proxy for plastic degradation [kcat] (s⁻¹)", "settings": "pH 9; part of the chain shown"}
{"protein": "B6", "Proxy for plastic degradation": 0.08}
{"protein": "B7", "Proxy for plastic degradation": 1.02}
{"substrate": "PET", "experiment": "Proxy for plastic degradation [kcat] (s⁻¹)", "settings": "pH 9; part of the chain shown"}
{"protein": "B6", "Proxy for plastic degradation": 0.013}
{"protein": "B7", "Proxy for plastic degradation": 0.09}
{"substrate": "not listed separately", "experiment": "Proxy for plastic degradation [melting temperature]", "settings": "pH 7; part of the chain shown", "units": {"Proxy for plastic degradation": "°C"}}
{"protein": "B6", "Proxy for plastic degradation": 47.9}
{"substrate": "pNPB", "experiment": "Proxy for plastic degradation [kcat/Km (catalytic efficiency)] (mM⁻¹s⁻¹)", "settings": "pH 7; part of the chain shown"}
{"protein": "B6", "Proxy for plastic degradation": 22.8}
{"protein": "B7", "Proxy for plastic degradation": 8.7}
{"substrate": "PEF", "experiment": "Proxy for plastic degradation [Released monomer concentration (HPLC/LC-MS) (FDCA + MHEF)] (s⁻¹)", "settings": "pH 9; part of the chain shown"}
{"protein": "B6", "Proxy for plastic degradation": 0.11}
{"protein": "B7", "Proxy for plastic degradation": 1}
{"substrate": "PET", "experiment": "Proxy for plastic degradation [Released monomer concentration (HPLC/LC-MS) (TPA+MHET+BHET)] (s⁻¹)", "settings": "pH 9; part of the chain shown"}
{"protein": "B6", "Proxy for plastic degradation": 0.012}
{"protein": "B7", "Proxy for plastic degradation": 0.075}
